Targets include HLA-A*02:02; HLA-A*02:03; HLA-A*02:06.
Holding throughout (assay): IEDB peptide-MHC binding, purified MHC/competitive/radioactivity; filed as Kd, often an IC50 or EC50 that approximates it; ≥ and ≤ were set here for values at or beyond the usual limits of such assays
[1] abbreviates: source organism: Vaccinia virus WR.
Where [2] appears, read: source organism: SARS coronavirus Tor2.
[3] abbreviates: source organism: Lymphocytic choriomeningitis virus (strain Armstrong).

Regarding SIKMIYDLNA, the results for the Kd with HLA-A*02:02 (setting [1]), in the experiment with HLA-A*02:03 (setting [1]) and in the experiment with HLA-A*02:06 (setting [1]) were 852 nM, 257 nM and 1030 nM, respectively.
For the sequence YASLTTIGT, the Kd was 409 nM in the experiment with HLA-A*02:02 (setting [1]), 144 nM in the experiment with HLA-A*02:03 (setting [1]) and 161 nM in the experiment with HLA-A*02:06 (setting [1]).
As to YLSSVLLAL, the Kd in the experiment with HLA-A*02:02 (setting [2]) was 0.144 nM; with HLA-A*02:03 (setting [2]) it was 0.308 nM; with HLA-A*02:06 (setting [2]), 8.16 nM.
The like results for FLAFLLFLV were, in that order, 1.81 nM, 58.3 nM and 9 nM.
As to EISSNDNAKI, the Kd with HLA-A*02:02 (setting [1]) was found to be 11200 nM; with HLA-A*02:03 (setting [1]), 194 nM; in the experiment with HLA-A*02:06 (setting [1]), 162 nM.
In the case of SCDDVVFGI, the Kd was 2150 nM with HLA-A*02:02 (setting [3]), at least 50400 nM in the experiment with HLA-A*02:03 (setting [3]) and 14500 nM with HLA-A*02:06 (setting [3]).
In the case of YLRGHTESI, the Kd with HLA-A*02:02 (setting [1]) is 0.206 nM; with HLA-A*02:03 (setting [1]) it was 0.176 nM; with HLA-A*02:06 (setting [1]), 90.9 nM.
The like results for SLVKESMASL were, in that order, 994 nM, 7.78 nM and 1430 nM.
QLMCQPILL: the Kd with HLA-A*02:02 (setting [2]) is 2.99 nM; with HLA-A*02:03 (setting [2]), 11.9 nM; in the experiment with HLA-A*02:06 (setting [2]), 76.9 nM.
In the case of FLRPVLKAM, the figures for the Kd in the experiment with HLA-A*02:02 (setting [1]), with HLA-A*02:03 (setting [1]) and with HLA-A*02:06 (setting [1]) were 1380 nM, 9.75 nM and 5480 nM, respectively.
For GMYYPTNDI, the results for the Kd with HLA-A*02:02 (setting [1]), with HLA-A*02:03 (setting [1]) and in the experiment with HLA-A*02:06 (setting [1]) were 53.1 nM, 8.71 nM and 1680 nM, respectively.
Consider TIFDIVSKCI, for which the Kd with HLA-A*02:02 (setting [1]) is 198 nM; with HLA-A*02:03 (setting [1]), 94.4 nM; in the experiment with HLA-A*02:06 (setting [1]) it was 701 nM.
For ALYKGFQFI, the Kd in the experiment with HLA-A*02:02 (setting [2]) is 0.532 nM; with HLA-A*02:03 (setting [2]) it was 3.32 nM; with HLA-A*02:06 (setting [2]) it was 2.03 nM.
For the sequence MAAAKTPVIV, the Kd with HLA-A*02:02 (setting [1]) turned out to be 6010 nM; with HLA-A*02:03 (setting [1]) it was 156 nM; with HLA-A*02:06 (setting [1]), 3630 nM.
The like results for ITFLRPVLKA were, in that order, 3160 nM, 718 nM and 18000 nM.
In the case of MLLTFLTSL, the Kd was found to be 6.21 nM with HLA-A*02:02 (setting [2]), 4.84 nM with HLA-A*02:03 (setting [2]) and 3.63 nM in the experiment with HLA-A*02:06 (setting [2]).
Turning to NVISKIYTLI, the Kd in the experiment with HLA-A*02:02 (setting [1]) amounted to 0.985 nM; with HLA-A*02:03 (setting [1]), 32.7 nM; in the experiment with HLA-A*02:06 (setting [1]) it was 196 nM.
For KLFKRERDA the same measures were 2390 nM, 985 nM and 14900 nM.
For YVIRHVDGKI the same measures were 621 nM, 114 nM and 522 nM.
For SVDFVVNGHT the same measures were at least 70000 nM, at least 70400 nM and at least 69800 nM.
In the case of YTLIYRQLT, the Kd with HLA-A*02:02 (setting [1]) was determined as 6410 nM; with HLA-A*02:03 (setting [1]) it was 9420 nM; in the experiment with HLA-A*02:06 (setting [1]), 17600 nM.
With WIKDIMTST, the Kd stood at 193 nM in the experiment with HLA-A*02:02 (setting [1]), 11.5 nM in the experiment with HLA-A*02:03 (setting [1]) and 136 nM with HLA-A*02:06 (setting [1]).
Take TISGNIYSAL: the Kd worked out at 9.32 nM with HLA-A*02:02 (setting [1]), 89.2 nM with HLA-A*02:03 (setting [1]) and 2670 nM with HLA-A*02:06 (setting [1]).
The like results for EVGTNFGTI were, in that order, 5760 nM, 1940 nM and 19900 nM.
Consider TLGVYDYLV, for which the Kd was found to be 0.245 nM with HLA-A*02:02 (setting [2]), 936 nM with HLA-A*02:03 (setting [2]) and 74.8 nM with HLA-A*02:06 (setting [2]).
For RAKRKPAMST, the values for the Kd in the experiment with HLA-A*02:02 (setting [1]), with HLA-A*02:03 (setting [1]) and in the experiment with HLA-A*02:06 (setting [1]) were 977 nM, 1380 nM and 1550 nM, respectively.
On to KLPTWLGAA, for which the Kd with HLA-A*02:02 (setting [1]) is 499 nM; with HLA-A*02:03 (setting [1]), 8.02 nM; in the experiment with HLA-A*02:06 (setting [1]) it was 9.42 nM.
On to DVNSVQFSI, for which the results for the Kd with HLA-A*02:02 (setting [1]), with HLA-A*02:03 (setting [1]) and in the experiment with HLA-A*02:06 (setting [1]) were 10400 nM, 16200 nM and 16900 nM, respectively.
For WIKNLETYT the same measures were 18300 nM, 637 nM and 8210 nM.
With FLNGSCGSV, the Kd amounted to 1.05 nM in the experiment with HLA-A*02:02 (setting [2]), 0.571 nM in the experiment with HLA-A*02:03 (setting [2]) and 64.5 nM with HLA-A*02:06 (setting [2]).
For NLLLLFVTI the same measures were 436 nM, 1600 nM and 456 nM.
Regarding PAMSTYSDI, the Kd with HLA-A*02:02 (setting [1]) is 18300 nM; with HLA-A*02:03 (setting [1]), at least 20600 nM; in the experiment with HLA-A*02:06 (setting [1]), at least 77100 nM.

Broadly, the Kd is the equilibrium constant for the complex coming apart.

These data come from the Immune Epitope Database (IEDB).
